Test [1] deals with human GLP-1 receptor (GLP-1R) (human, UniProt P43220 24-463). Nature of the test: cell-based or functional assay.
The target of test [2] is T1, human gastric inhibitory peptide receptor (GIPR) (human, UniProt P48546 22-466).
T1 sequence (looked up): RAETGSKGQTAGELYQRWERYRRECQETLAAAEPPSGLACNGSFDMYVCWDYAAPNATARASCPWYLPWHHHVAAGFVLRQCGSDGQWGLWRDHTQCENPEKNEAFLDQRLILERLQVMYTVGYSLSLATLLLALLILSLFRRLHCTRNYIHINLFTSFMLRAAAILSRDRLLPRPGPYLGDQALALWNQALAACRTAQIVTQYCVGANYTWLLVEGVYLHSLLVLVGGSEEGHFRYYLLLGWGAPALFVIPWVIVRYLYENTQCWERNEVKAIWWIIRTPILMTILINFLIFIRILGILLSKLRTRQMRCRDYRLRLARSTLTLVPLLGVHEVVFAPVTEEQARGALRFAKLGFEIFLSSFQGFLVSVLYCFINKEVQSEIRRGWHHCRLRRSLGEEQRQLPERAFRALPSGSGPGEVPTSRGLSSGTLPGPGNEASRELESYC
Nature of the test: cell-based or functional assay.

Numbered stars: 1 amine (or outer) side, 2 acyl side, 3 side chain; on linkers, the order of the positions; unused ones are H or OH. Square brackets hold non-standard residues; d marks the D form. Side chains are listed from the residue outwards. Ends that are not written are not given here. * marks the point of attachment. C20 diacid = O=C(O)CCCCCCCCCCCCCCCCCCC(=O)*; αMePhe(2-F) = C[C@](N)(Cc1ccccc1F)C(=O)O; γGlu = O=C(O)[C@H](CCC(=O)[*:2])N[*:1]; Desaminotyrosyl = O=C(CCc1ccc(O)cc1)*; αMeF = C[C@](N)(Cc1ccccc1)C(=O)O; cTA = not defined here; AEEA = NCCOCCOCC(=O)O; Aib = CC(C)(N)C(=O)O

The results in this text go back to patent US20220048967A1 (published 2022).

B1: Example 120 (peptide)
peptide: Y[Aib][cTA]GT[αMeF]TSDYSIXLDEK([AEEA-AEEA-γGlu-C20 diacid])AQ[Aib]AFIEYLIEGGPSSGAPPPS-NH2
modifications: not fully specified (residue 13); printed as Y-Aib-cTA-GT-αMeF-TSDYSI-αMeF-LDEK((2-[2-(2-Amino-ethoxy)-ethoxy]-acetyl)2-(γ-Glu)-CO-(CH2)18-CO2H)AQ-Aib-AFIEYLIEGGPSSGAPPPS-NH2
For B1, in test [1], the “hGLP1R cAMP EC50 ratio” value was 0.319 and the “hGLP1R cAMP Rel EC50” value was determined as 0.201 nM. For the same molecule, in test [2], the “hGIPR cAMP EC50 ratio” value turned out to be 1.67 and the “hGIPR cAMP Rel EC50” value is 0.122 nM.

B2: Example 126 (peptide)
peptide: Y[Aib]EGT[αMeF]TSDYSIXLDKK([AEEA-AEEA-γGlu-C20 diacid])AQ[Aib]AFIEYLIEAGPSSGAPPPS-NH2
modifications: not fully specified (residue 13); printed as Y-Aib-EGT-αMeF-TSDYSI-αMeF-LDKK((2-[2-(2-Amino-ethoxy)-ethoxy]-acetyl)2-(γ-Glu)-CO-(CH2)18-CO2H)AQ-Aib-AFIEYLIEAGPSSGAPPPS-NH2
With B2, in test [1], the “hGLP1R cAMP EC50 ratio” value turned out to be 0.869 and the “hGLP1R cAMP Rel EC50” value came to 0.0715 nM. Further, in test [2], the “hGIPR cAMP EC50 ratio” value is 2.53 and the “hGIPR cAMP Rel EC50” value amounted to 0.0685 nM.

B3: Example 123 (peptide)
peptide: Y[Aib]EGT[αMeF]TSDYSIXLDKK([AEEA-AEEA-γGlu-C20 diacid])AQ[Aib]EFIEYLIEGGPSSG-NH2
modifications: not fully specified (residue 13); printed as Y-Aib-EGT-αMeF-TSDYSI-αMeF-LDKK((2-[2-(2-Amino-ethoxy)-ethoxy]-acetyl)2-(γ-Glu)-CO-(CH2)18-CO2H)AQ-Aib-EFIEYLIEGGPSSG-NH2
As for B3, in test [1], the “hGLP1R cAMP EC50 ratio” value came out at 1.58 and the “hGLP1R cAMP Rel EC50” value worked out at 0.0344 nM. Moreover, in test [2], the “hGIPR cAMP EC50 ratio” value turned out to be 4.04 and the “hGIPR cAMP Rel EC50” value worked out at 0.0423 nM.

B4: Example 124 (peptide)
peptide: Y[Aib]EGT[αMeF]TSDYSIXLDEK([AEEA-AEEA-γGlu-C20 diacid])AQ[Aib]EFIEYLIEGGPSSG-NH2
modifications: not fully specified (residue 13); printed as Y-Aib-EGT-αMeF-TSDYSI-αMeF-LDEK((2-[2-(2-Amino-ethoxy)-ethoxy]-acetyl)2-(γ-Glu)-CO-(CH2)18-CO2H)AQ-Aib-EFIEYLIEGGPSSG-NH2
In the case of B4, in test [1], the “hGLP1R cAMP EC50 ratio” value was 1.29 and the “hGLP1R cAMP Rel EC50” value was found to be 0.0475 nM. In test [2], the “hGIPR cAMP EC50 ratio” value was 2.18 and the “hGIPR cAMP Rel EC50” value was 0.0762 nM.

B5: Example 135 (peptide)
peptide: H[Aib]NGTFTSDYSILLDKK([AEEA-AEEA-γGlu-C20 diacid])AQ[Aib]AFIEYLIEGGPSSGAPPPS-NH2
modifications: N-terminus assumed
SMILES: CC[C@H](C)[C@H](NC(=O)[C@H](CC(C)C)NC(=O)[C@H](Cc1ccc(O)cc1)NC(=O)[C@H](CCC(=O)O)NC(=O)[C@@H](NC(=O)[C@H](Cc1ccccc1)NC(=O)[C@H](C)NC(=O)C(C)(C)NC(=O)[C@H](CCC(N)=O)NC(=O)[C@H](C)NC(=O)[C@H](CCCCNC(=O)COCCOCCNC(=O)COCCOCCNC(=O)CC[C@H](NC(=O)CCCCCCCCCCCCCCCCCCC(=O)O)C(=O)O)NC(=O)[C@H](CCCCN)NC(=O)[C@H](CC(=O)O)NC(=O)[C@H](CC(C)C)NC(=O)[C@H](CC(C)C)NC(=O)[C@@H](NC(=O)[C@H](CO)NC(=O)[C@H](Cc1ccc(O)cc1)NC(=O)[C@H](CC(=O)O)NC(=O)[C@H](CO)NC(=O)[C@@H](NC(=O)[C@H](Cc1ccccc1)NC(=O)[C@@H](NC(=O)CNC(=O)[C@H](CC(N)=O)NC(=O)C(C)(C)NC(=O)[C@@H](N)Cc1c[nH]cn1)[C@@H](C)O)[C@@H](C)O)[C@@H](C)CC)[C@@H](C)CC)C(=O)N[C@@H](CCC(=O)O)C(=O)NCC(=O)NCC(=O)N1CCC[C@H]1C(=O)N[C@@H](CO)C(=O)N[C@@H](CO)C(=O)NCC(=O)N[C@@H](C)C(=O)N1CCC[C@H]1C(=O)N1CCC[C@H]1C(=O)N1CCC[C@H]1C(=O)N[C@@H](CO)C(N)=O
As to B5, in test [1], the “hGLP1R cAMP EC50 ratio” value worked out at 0.509 and the “hGLP1R cAMP Rel EC50” value is 0.131 nM. In test [2], the “hGIPR cAMP EC50 ratio” value was determined as 0.482 and the “hGIPR cAMP Rel EC50” value stood at 0.373 nM.

B6: Example 133 (peptide)
peptide: [Desaminotyrosyl][Aib]EGT[αMeF]TSDYSI[Aib]LDEK([AEEA-AEEA-γGlu-C20 diacid])AQ[Aib]AFIEYLIEGGPSSGAPPPS-NH2
SMILES: CC[C@H](C)[C@H](NC(=O)[C@H](CC(C)C)NC(=O)[C@H](Cc1ccc(O)cc1)NC(=O)[C@H](CCC(=O)O)NC(=O)[C@@H](NC(=O)[C@H](Cc1ccccc1)NC(=O)[C@H](C)NC(=O)C(C)(C)NC(=O)[C@H](CCC(N)=O)NC(=O)[C@H](C)NC(=O)[C@H](CCCCNC(=O)COCCOCCNC(=O)COCCOCCNC(=O)CC[C@H](NC(=O)CCCCCCCCCCCCCCCCCCC(=O)O)C(=O)O)NC(=O)[C@H](CCC(=O)O)NC(=O)[C@H](CC(=O)O)NC(=O)[C@H](CC(C)C)NC(=O)C(C)(C)NC(=O)[C@@H](NC(=O)[C@H](CO)NC(=O)[C@H](Cc1ccc(O)cc1)NC(=O)[C@H](CC(=O)O)NC(=O)[C@H](CO)NC(=O)[C@@H](NC(=O)[C@](C)(Cc1ccccc1)NC(=O)[C@@H](NC(=O)CNC(=O)[C@H](CCC(=O)O)NC(=O)C(C)(C)NC(=O)CCc1ccc(O)cc1)[C@@H](C)O)[C@@H](C)O)[C@@H](C)CC)[C@@H](C)CC)C(=O)N[C@@H](CCC(=O)O)C(=O)NCC(=O)NCC(=O)N1CCC[C@H]1C(=O)N[C@@H](CO)C(=O)N[C@@H](CO)C(=O)NCC(=O)N[C@@H](C)C(=O)N1CCC[C@H]1C(=O)N1CCC[C@H]1C(=O)N1CCC[C@H]1C(=O)N[C@@H](CO)C(N)=O
For the molecule B6, in test [1], the “hGLP1R cAMP EC50 ratio” value worked out at 1.52 and the “hGLP1R cAMP Rel EC50” value is 0.0436 nM. Moreover, in test [2], the “hGIPR cAMP EC50 ratio” value came out at 1.89 and the “hGIPR cAMP Rel EC50” value stood at 0.0879 nM.

B7: Example 127 (peptide)
peptide: YXEGTXTSDISILLDKKAQXAFIEYLIEGGPSSGAPPPS
modifications: Y-Aib-EGT-αMeF-TSDISILLDKK((2-[2-(2-Amino-ethoxy)-ethoxy]-acetyl)2-(γ-Glu)-CO-(CH2)18-CO2H)AQ-Aib-AFIEYLIEGGPSSGAPPPS-NH2
For the molecule B7, in test [1], the “hGLP1R cAMP EC50 ratio” value was determined as 0.443 and the “hGLP1R cAMP Rel EC50” value turned out to be 0.145 nM. Also, in test [2], the “hGIPR cAMP EC50 ratio” value is 0.917 and the “hGIPR cAMP Rel EC50” value was 0.158 nM.

B8: Example 131 (peptide)
peptide: YXEGTXTSDXSILLDKKAQXAFIEYLIEGGPSSGAPPPS
modifications: Y-Aib-EGT-αMeF-TSD-αMeF-SILLDKK((2-[2-(2-Amino-ethoxy)-ethoxy]-acetyl)2-(γ-Glu)-CO-(CH2)18-CO2H)AQ-Aib-AFIEYLIEGGPSSGAPPPS-NH2
As to B8, in test [1], the “hGLP1R cAMP EC50 ratio” value stood at 0.425 and the “hGLP1R cAMP Rel EC50” value came to 0.156 nM. In addition, in test [2], the “hGIPR cAMP EC50 ratio” value worked out at 1.03 and the “hGIPR cAMP Rel EC50” value came out at 0.183 nM.

B9: Example 129 (peptide)
peptide: YXEGTXTSDLSILLDKKAQXAFIEYLIEGGPSSGAPPPS
modifications: Y-Aib-EGT-αMeF-TSDLSILLDKK((2-[2-(2-Amino-ethoxy)-ethoxy]-acetyl)2-(γ-Glu)-CO-(CH2)18-CO2H)AQ-Aib-AFIEYLIEGGPSSGAPPPS-NH2
With B9, in test [1], the “hGLP1R cAMP EC50 ratio” value amounted to 0.543 and the “hGLP1R cAMP Rel EC50” value was found to be 0.121 nM. Besides, in test [2], the “hGIPR cAMP EC50 ratio” value was determined as 1.88 and the “hGIPR cAMP Rel EC50” value worked out at 0.106 nM.

B10: Example 128 (peptide)
peptide: YXEGTXTSDHSILLDKKAQXAFIEYLIEGGPSSGAPPPS
modifications: Y-Aib-EGT-αMeF-TSDHSILLDKK((2-[2-(2-Amino-ethoxy)-ethoxy]-acetyl)2-(γ-Glu)-CO-(CH2)18-CO2H)AQ-Aib-AFIEYLIEGGPSSGAPPPS-NH2
Turning to B10, in test [1], the “hGLP1R cAMP EC50 ratio” value is 0.7 and the “hGLP1R cAMP Rel EC50” value worked out at 0.0924 nM. For the same molecule, in test [2], the “hGIPR cAMP EC50 ratio” value is 2.46 and the “hGIPR cAMP Rel EC50” value worked out at 0.0694 nM.

B11: Example 132 (peptide)
peptide: YXEGTXTSDXSILLDKKAQXAFIEYLIEGGPSSGAPPPS
modifications: Y-Aib-EGT-αMeF-TSD-3Pal-SILLDKK((2-[2-(2-Amino-ethoxy)-ethoxy]-acetyl)2-(γ-Glu)-CO-(CH2)18-CO2H)AQ-Aib-AFIEYLIEGGPSSGAPPPS-NH2
Take B11: in test [1], the “hGLP1R cAMP EC50 ratio” value was determined as 0.255 and the “hGLP1R cAMP Rel EC50” value was found to be 0.26 nM. Further, in test [2], the “hGIPR cAMP EC50 ratio” value is 2.88 and the “hGIPR cAMP Rel EC50” value was found to be 0.0657 nM.

B12: Example 130 (peptide)
peptide: YXEGTXTSDESILLDKKAQXAFIEYLIEGGPSSGAPPPS
modifications: Y-Aib-EGT-αMeF-TSDESILLDKK((2-[2-(2-Amino-ethoxy)-ethoxy]-acetyl)2-(γ-Glu)-CO-(CH2)18-CO2H)AQ-Aib-AFIEYLIEGGPSSGAPPPS-NH2
With B12, in test [1], the “hGLP1R cAMP EC50 ratio” value came to 0.182 and the “hGLP1R cAMP Rel EC50” value was found to be 0.368 nM. Besides, in test [2], the “hGIPR cAMP EC50 ratio” value worked out at 0.116 and the “hGIPR cAMP Rel EC50” value is 1.55 nM.

B13: Example 134 (peptide)
peptide: [Desaminotyrosyl][Aib]EGT[αMePhe(2-F)]TSDYSIXLDEK([AEEA-AEEA-γGlu-C20 diacid])AQ[Aib]EFIEYLIEGGPSSGAPPPS-NH2
modifications: not fully specified (residue 13); printed as DesTyr-Aib-EGT-αMeF(2F)-TSDYSI-αMeF-LDEK((2-[2-(2-Amino-ethoxy)-ethoxy]-acetyl)2-(γ-Glu)-CO-(CH2)18-CO2H)AQ-Aib-EFIEYLIEGGPSSGAPPPS-NH2
Consider B13, for which, in test [1], the “hGLP1R cAMP EC50 ratio” value worked out at 0.942 and the “hGLP1R cAMP Rel EC50” value was 0.0654 nM. Also, in test [2], the “hGIPR cAMP EC50 ratio” value came out at 1.43 and the “hGIPR cAMP Rel EC50” value came to 0.104 nM.
